# Measured values from US20200140551A1 (GlaxoSmithKline, published 2020).
# T1: human ICOS on human T cells (human, UniProt Q9Y6W8 21-167)
# T1 construct: endogenous receptor on primary cells; also called ICOS on CD4+ and CD8+ T cells of healthy human donors
# T1 sequence: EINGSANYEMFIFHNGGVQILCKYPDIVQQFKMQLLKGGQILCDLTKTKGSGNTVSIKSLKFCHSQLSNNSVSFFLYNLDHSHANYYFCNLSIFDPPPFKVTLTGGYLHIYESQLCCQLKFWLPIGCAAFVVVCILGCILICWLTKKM
# T2: human FcγR IIb (human, UniProt P31994 46-217, limits assumed)
# T2 sequence (looked up): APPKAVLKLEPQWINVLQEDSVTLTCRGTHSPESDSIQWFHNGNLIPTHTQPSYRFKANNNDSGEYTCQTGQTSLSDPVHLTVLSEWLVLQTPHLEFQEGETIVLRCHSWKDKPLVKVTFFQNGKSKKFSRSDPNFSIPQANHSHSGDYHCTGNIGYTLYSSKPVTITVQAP
# B1: H2L5 hIgG4PE (antibody)
# heavy: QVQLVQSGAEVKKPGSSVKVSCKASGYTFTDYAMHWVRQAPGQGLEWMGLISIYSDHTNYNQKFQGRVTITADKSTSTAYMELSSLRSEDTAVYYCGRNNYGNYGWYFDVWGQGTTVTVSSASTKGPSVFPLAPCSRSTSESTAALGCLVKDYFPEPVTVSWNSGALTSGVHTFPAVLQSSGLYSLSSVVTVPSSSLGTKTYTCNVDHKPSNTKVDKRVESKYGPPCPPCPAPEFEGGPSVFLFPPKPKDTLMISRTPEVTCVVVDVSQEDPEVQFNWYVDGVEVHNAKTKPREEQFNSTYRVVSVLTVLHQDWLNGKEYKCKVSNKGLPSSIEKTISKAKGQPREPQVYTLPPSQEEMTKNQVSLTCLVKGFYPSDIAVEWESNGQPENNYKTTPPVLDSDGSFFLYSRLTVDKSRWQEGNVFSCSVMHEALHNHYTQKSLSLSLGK
# light: EIVLTQSPATLSLSPGERATLSCSASSSVSYMHWYQQKPGQAPRLLIYDTSKLASGIPARFSGSGSGTDYTLTISSLEPEDFAVYYCFQGSGYPYTFGQGTKLEIKRTVAAPSVFIFPPSDEQLKSGTASVVCLLNNFYPREAKVQWKVDNALQSGNSQESVTEQDSKDSTYSLSSTLTLSKADYEKHKVYACEVTHQGLSSPVTKSFNRGEC
# notes: also called 422 H2L5 hIgG4PE; H2L5 IgG4PE; copies: 2 + 2
# What was measured:
# [1] = target: T1, human ICOS on human T cells; experiment: flow cytometry, activated human CD4 T cells, percent FITC positive, donor 1123F59
# Description: (§1) Binding of H2L5 hIgG4PE was assessed in both naive and activated CD3+ T cells.
# (§2) Either naive and/or activated CD3+ T cells were re-suspended in PBS with 0.1% BSA (FACS Buffer) containing Human FcR Blocking Solution at 2×10⁶ cells/mL (5 μl FcR Blocking Solution+[…] FACS Buffer per 1 mL). At a concentration of 2×10⁵ cells/well, 100 μl cells were placed into 2 mL 96 well Assay Blocks and incubated at room temperature for 15 minutes. During the incubation, a titration of the binding antibodies, anti-ICOS (H2L5 hIgG4PE) or IgG4 Isotype Control antibody was prepared as a 2× concentration. […] Following the binding incubation, cells were washed twice in 1 mL of FACS buffer, centrifuging at 400×g for 5 minutes at room temperature.
# (§3) Data acquisition and compensation were performed on BD FACS instruments, LSR Fortessa X-20 or FACS Canto II using BD Diva (ver. 8.0) software. Data analysis employed Flow Jo software (ver.10.0.8r1). Results are reported as both MFI (Median Fluorescence Intensity) and Percent of cells positive for human IgG kappa light chain FITC staining out of the total live cells or appropriate parent population. EC50s were determined using Graphpad Prism 5 software (ver. 5.04) with non-linear regression of transformed data (X=(log(X)) using a variable slope with 4 parameters (log(Agonist) vs. response—Variable slope).
# [2] = target: T2, human FcγR IIb; experiment: affinity to human Fcγ receptors; method not described
# [3] = target: T1, human ICOS on human T cells; experiment: flow cytometry, activated human CD8 T cells, FITC MFI, donor 1124F36
# Description: as §1, §2, §3
# [4] = target: T1, human ICOS on human T cells; experiment: cell-based or functional assay
# [5] = target: T1, human ICOS on human T cells; experiment: flow cytometry, activated human CD4 T cells, percent FITC positive, median of donors
# Description: as §1, §2, §3
# [6] = target: T1, human ICOS on human T cells; experiment: flow cytometry, activated human CD4 T cells, FITC MFI, donor 1173F42
# Description: as §2, §3
# [7] = target: T1, human ICOS on human T cells; experiment: flow cytometry, activated human CD4 T cells, FITC MFI, median of donors
# Description: as §1, §2, §3
# [8] = target: T1, human ICOS on human T cells; experiment: flow cytometry, activated human CD8 T cells, percent FITC positive, mean of donors
# Description: as §2, §3
binder,measurement,setting,value
B1,EC50,[1],0.853 µg/mL
same,Kd,[2],1470 nM
same,EC50,[3],0.564 µg/mL
same,"EC50, CD4+CD25+, PBMC activation assay, donor 185M45, 24 hr",[4],2.4 µg/mL
same,"EC50, CD4+CD25+, PBMC activation assay, donor 185M45, 48 hr",[4],0.5 µg/mL
same,"EC50, CD4+CD25+, PBMC activation assay, donor 1124F36, 24 hr",[4],0.6 µg/mL
same,"EC50, CD4+CD25+, PBMC activation assay, donor 1124F36, 48 hr",[4],0.6 µg/mL
same,"EC50, CD4+CD25+, PBMC activation assay, donor 1136F50, 24 hr",[4],0.3 µg/mL
same,"EC50, CD4+CD25+, PBMC activation assay, donor 1136F50, 48 hr",[4],0.6 µg/mL
same,"EC50, CD4+CD25+, PBMC activation assay, donor 1149M52, 24 hr",[4],0.6 µg/mL
same,"EC50, CD4+CD25+, PBMC activation assay, donor 1149M52, 48 hr",[4],0.4 µg/mL
same,"EC50, CD4+CD69+, PBMC activation assay, donor 185M45, 24 hr",[4],0.8 µg/mL
same,"EC50, CD4+CD69+, PBMC activation assay, donor 1124F36, 24 hr",[4],1.1 µg/mL
same,"EC50, CD4+CD69+, PBMC activation assay, donor 1124F36, 48 hr",[4],1.1 µg/mL
same,"EC50, CD4+CD69+, PBMC activation assay, donor 1136F50, 24 hr",[4],0.5 µg/mL
same,"EC50, CD4+CD69+, PBMC activation assay, donor 1136F50, 48 hr",[4],0.4 µg/mL
same,"EC50, CD4+CD69+, PBMC activation assay, donor 1149M52, 24 hr",[4],0.5 µg/mL
same,"EC50, CD4+CD69+, PBMC activation assay, donor 1149M52, 48 hr",[4],0.4 µg/mL
same,"EC50, CD4+Ki67+, PBMC activation assay, donor 185M45, 48 hr",[4],0.6 µg/mL
same,"EC50, CD4+Ki67+, PBMC activation assay, donor 1124F36, 48 hr",[4],0.8 µg/mL
same,"EC50, CD4+Ki67+, PBMC activation assay, donor 1149M52, 48 hr",[4],0.5 µg/mL
same,"EC50, CD4+OX40+, PBMC activation assay, donor 185M45, 24 hr",[4],1.6 µg/mL
same,"EC50, CD4+OX40+, PBMC activation assay, donor 1124F36, 24 hr",[4],0.6 µg/mL
same,"EC50, CD4+OX40+, PBMC activation assay, donor 1124F36, 48 hr",[4],1.2 µg/mL
same,"EC50, CD4+OX40+, PBMC activation assay, donor 1136F50, 24 hr",[4],0.2 µg/mL
same,"EC50, CD4+OX40+, PBMC activation assay, donor 1136F50, 48 hr",[4],0.4 µg/mL
same,"EC50, CD4+OX40+, PBMC activation assay, donor 1149M52, 24 hr",[4],0.6 µg/mL
same,"EC50, CD4+OX40+, PBMC activation assay, donor 1149M52, 48 hr",[4],0.4 µg/mL
same,"EC50, CD8+CD25+, PBMC activation assay, donor 185M45, 24 hr",[4],2 µg/mL
same,"EC50, CD8+CD25+, PBMC activation assay, donor 185M45, 48 hr",[4],0.5 µg/mL
same,"EC50, CD8+CD25+, PBMC activation assay, donor 1124F36, 24 hr",[4],0.6 µg/mL
same,"EC50, CD8+CD25+, PBMC activation assay, donor 1124F36, 48 hr",[4],0.5 µg/mL
same,"EC50, CD8+CD25+, PBMC activation assay, donor 1136F50, 24 hr",[4],0.4 µg/mL
same,"EC50, CD8+CD25+, PBMC activation assay, donor 1136F50, 48 hr",[4],0.7 µg/mL
same,"EC50, CD8+CD25+, PBMC activation assay, donor 1149M52, 24 hr",[4],1 µg/mL
same,"EC50, CD8+CD25+, PBMC activation assay, donor 1149M52, 48 hr",[4],0.4 µg/mL
same,"EC50, CD8+CD69+, PBMC activation assay, donor 185M45, 24 hr",[4],1.2 µg/mL
same,"EC50, CD8+CD69+, PBMC activation assay, donor 185M45, 48 hr",[4],0.5 µg/mL
same,"EC50, CD8+CD69+, PBMC activation assay, donor 1124F36, 24 hr",[4],0.8 µg/mL
same,"EC50, CD8+CD69+, PBMC activation assay, donor 1124F36, 48 hr",[4],1.1 µg/mL
same,"EC50, CD8+CD69+, PBMC activation assay, donor 1136F50, 24 hr",[4],0.5 µg/mL
same,"EC50, CD8+CD69+, PBMC activation assay, donor 1136F50, 48 hr",[4],0.6 µg/mL
same,"EC50, CD8+CD69+, PBMC activation assay, donor 1149M52, 24 hr",[4],0.6 µg/mL
same,"EC50, CD8+CD69+, PBMC activation assay, donor 1149M52, 48 hr",[4],0.4 µg/mL
same,"EC50, CD8+Ki67+, PBMC activation assay, donor 185M45, 48 hr",[4],0.4 µg/mL
same,"EC50, CD8+Ki67+, PBMC activation assay, donor 1124F36, 48 hr",[4],0.7 µg/mL
same,"EC50, CD8+Ki67+, PBMC activation assay, donor 1149M52, 48 hr",[4],0.3 µg/mL
same,"EC50, CD8+OX40+, PBMC activation assay, donor 185M45, 24 hr",[4],1.6 µg/mL
same,"EC50, CD8+OX40+, PBMC activation assay, donor 1124F36, 24 hr",[4],2.4 µg/mL
same,"EC50, CD8+OX40+, PBMC activation assay, donor 1124F36, 48 hr",[4],0.5 µg/mL
same,"EC50, CD8+OX40+, PBMC activation assay, donor 1136F50, 24 hr",[4],0.3 µg/mL
same,"EC50, CD8+OX40+, PBMC activation assay, donor 1136F50, 48 hr",[4],0.5 µg/mL
same,"EC50, CD8+OX40+, PBMC activation assay, donor 1149M52, 24 hr",[4],1.5 µg/mL
same,"EC50, CD8+OX40+, PBMC activation assay, donor 1149M52, 48 hr",[4],0.3 µg/mL
same,"EC50, IFN-γ, PBMC activation assay, donor 185M45, 24 hr",[4],0.3 µg/mL
same,"EC50, IFN-γ, PBMC activation assay, donor 185M45, 48 hr",[4],0.7 µg/mL
same,"EC50, IFN-γ, PBMC activation assay, donor 1124F36, 24 hr",[4],0.3 µg/mL
same,"EC50, IFN-γ, PBMC activation assay, donor 1124F36, 48 hr",[4],0.5 µg/mL
same,"EC50, IFN-γ, PBMC activation assay, donor 1136F50, 24 hr",[4],0.4 µg/mL
same,"EC50, IFN-γ, PBMC activation assay, donor 1136F50, 48 hr",[4],1.5 µg/mL
same,"EC50, IFN-γ, PBMC activation assay, donor 1149M52, 24 hr",[4],0.2 µg/mL
same,"EC50, IFN-γ, PBMC activation assay, donor 1149M52, 48 hr",[4],0.6 µg/mL
same,"EC50, IL-6, PBMC activation assay, donor 185M45, 24 hr",[4],0.7 µg/mL
same,"EC50, IL-6, PBMC activation assay, donor 185M45, 48 hr",[4],0.8 µg/mL
same,"EC50, IL-6, PBMC activation assay, donor 1136F50, 24 hr",[4],0.7 µg/mL
same,"EC50, IL-6, PBMC activation assay, donor 1136F50, 48 hr",[4],1.1 µg/mL
same,"EC50, IL-6, PBMC activation assay, donor 1149M52, 24 hr",[4],0.2 µg/mL
same,"EC50, IL-6, PBMC activation assay, donor 1149M52, 48 hr",[4],0.3 µg/mL
same,"EC50, IL-10, PBMC activation assay, donor 185M45, 24 hr",[4],0.7 µg/mL
same,"EC50, IL-10, PBMC activation assay, donor 185M45, 48 hr",[4],0.8 µg/mL
same,"EC50, IL-10, PBMC activation assay, donor 1124F36, 24 hr",[4],0.7 µg/mL
same,"EC50, IL-10, PBMC activation assay, donor 1124F36, 48 hr",[4],0.6 µg/mL
same,"EC50, IL-10, PBMC activation assay, donor 1136F50, 24 hr",[4],1.7 µg/mL
same,"EC50, IL-10, PBMC activation assay, donor 1136F50, 48 hr",[4],1.3 µg/mL
same,"EC50, IL-10, PBMC activation assay, donor 1149M52, 24 hr",[4],0.5 µg/mL
same,"EC50, IL-10, PBMC activation assay, donor 1149M52, 48 hr",[4],0.6 µg/mL
same,"EC50, IL-17a, PBMC activation assay, donor 185M45, 24 hr",[4],0.8 µg/mL
same,"EC50, IL-17a, PBMC activation assay, donor 185M45, 48 hr",[4],1.1 µg/mL
same,"EC50, IL-17a, PBMC activation assay, donor 1124F36, 24 hr",[4],0.6 µg/mL
same,"EC50, IL-17a, PBMC activation assay, donor 1124F36, 48 hr",[4],0.8 µg/mL
same,"EC50, IL-17a, PBMC activation assay, donor 1136F50, 24 hr",[4],1.4 µg/mL
same,"EC50, IL-17a, PBMC activation assay, donor 1136F50, 48 hr",[4],1.6 µg/mL
same,"EC50, IL-17a, PBMC activation assay, donor 1149M52, 24 hr",[4],0.7 µg/mL
same,"EC50, IL-17a, PBMC activation assay, donor 1149M52, 48 hr",[4],1 µg/mL
same,"EC50, TNF-α, PBMC activation assay, donor 185M45, 48 hr",[4],0.5 µg/mL
same,"EC50, TNF-α, PBMC activation assay, donor 1124F36, 48 hr",[4],0.3 µg/mL
same,"EC50, TNF-α, PBMC activation assay, donor 1136F50, 48 hr",[4],0.3 µg/mL
same,"EC50, TNF-α, PBMC activation assay, donor 1149M52, 48 hr",[4],0.2 µg/mL
same,EC50,[5],0.834 µg/mL
same,EC50,[6],0.636 µg/mL
same,EC50,[7],1.04 µg/mL
same,EC50,[8],0.692 µg/mL
